Key:
Mol8 = target: T1, Mol8 (Mobiluncus mulieris); test: SDS-PAGE of mixed Mol domains, ester bond ligation
T1 construct: also called Mol8 construct
T1 chain: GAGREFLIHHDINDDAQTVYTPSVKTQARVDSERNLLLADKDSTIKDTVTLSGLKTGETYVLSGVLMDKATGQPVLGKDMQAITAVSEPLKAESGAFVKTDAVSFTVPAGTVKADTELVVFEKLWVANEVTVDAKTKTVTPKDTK

Mol9 = target: T2, Mol9 (Mobiluncus mulieris); test: SDS-PAGE of mixed Mol domains, ester bond ligation
T2 construct: also called Mol9 construct
T2 chain: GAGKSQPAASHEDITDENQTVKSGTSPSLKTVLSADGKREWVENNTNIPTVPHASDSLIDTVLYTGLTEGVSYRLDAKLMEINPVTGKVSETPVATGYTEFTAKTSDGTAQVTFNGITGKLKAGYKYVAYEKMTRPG

B1: Mol10 (other)
chain: GAPDKPVPPPHEDPKDPNQTVVSEHNPGITTTLTDAQAAKGTDGKVISLTRDAQLKDVVRVTQTGLIEGAKYHVFSKLVNQANPDQVVSAGMQEFTATGDQLRSVTVKFTVPKETLQELAGSDPSAEFKLVAYEYLALDSDTDIVNKEATSEIEAVGFK
notes: also called Mol10 construct
Mol8
  binding result: no binding (tested: equimolar amounts, 24 h)

B2: Mol11 (other)
chain: GAGKTWAATHADPNDAGQTVTVVKAPKIGTTLKYGQSKTVWVADKVELTDTVEYFNLQPKTKYTLSGNLMGGTSAESLSDTGVKATTEFTTPAAANGAQTVSGTAVVKFTVPREVLERNEKLVAYEYLTIDGNPVASHEDPKDENQTVTSKKP
notes: also called Mol11 domain construct
Mol8
  binding result: no binding (tested: equimolar amounts, 24 h)
Mol9
  binding result: no binding (tested: equimolar amounts, 24 h)

From patent publication US20190352343A1 (AUCKLAND UNISERVICES, published 2019)
